Assay results reported in publication PMC3646729, “Recruitment, Assembly, and Molecular Architecture of the SpoIIIE DNA Pump Revealed by Superresolution Microscopy” (PLoS Biology, 2013).

Molecular target: the molecule itself
Assay: two-photon number and brightness analysis (N&B, fluorescence fluctuation microscopy); live B. subtilis cells with SpoIIIE-GFP; clusters at sporulation and division septa, after induction of sporulation or in exponential growth; brightness normalised to monomeric freely diffusing GFP; excitation at 930 nm, 50 raster scans

B1: SpoIIIE-GFP fusion (natural protein, B. subtilis, UniProt P21458 1-787, looked up)
chain: MAKKKRKSRKKQAKQLNIKYELNGLLCIAISIIAILQLGVVGQTFIYLFRFFAGEWFILCLLGLLVLGVSLFWKKKTPSLLTRRKAGLYCIIASILLLSHVQLFKNLTHKGSIESASVVRNTWELFLMDMNGSSASPDLGGGMIGALLFAASHFLFASTGSQIMAIVMILIGMILVTGRSLQETLKKWMSPIGRFIKEQWLAFIDDMKSFKSNMQSSKKTKAPSKKQKPARKKQQMEPEPPDEEGDYETVSPLIHSEPIISSFSDRNEEEESPVIEKRAEPVSKPLQDIQPETGDQETVSAPPMTFTELENKDYEMPSLDLLADPKHTGQQADKKNIYENARKLERTFQSFGVKAKVTQVHLGPAVTKYEVYPDVGVKVSKIVNLSDDLALALAAKDIRIEAPIPGKSAIGIEVPNAEVAMVSLKEVLESKLNDRPDAKLLIGLGRNISGEAVLAELNKMPHLLVAGATGSGKSVCVNGIITSILMRAKPHEVKMMMIDPKMVELNVYNGIPHLLAPVVTDPKKASQALKKVVNEMERRYELFSHTGTRNIEGYNDYIKRANNEEGAKQPELPYIVVIVDELADLMMVASSDVEDSITRLSQMARAAGIHLIIATQRPSVDVITGVIKANIPSRIAFSVSSQTDSRTILDMGGAEKLLGRGDMLFLPVGANKPVRVQGAFLSDDEVEKVVDHVITQQKAQYQEEMIPEETTETHSEVTDELYDEAVELIVGMQTASVSMLQRRFRIGYTRAARLIDAMEERGVVGPYEGSKPREVLLSKEKYDELSS
notes: SpoIIIE DNA translocase of Bacillus subtilis (strain PY79 derivative); the SpoIIIE gene was replaced by a SpoIIIE-GFP fusion, no wild-type copy left; The fusion is said to be fully functional, so it is probably the whole protein; also called SpoIIIE ATPase; SpoIIIE DNA translocase; source: B. subtilis PY79 derivative, SpoIIIE-GFP fusion under the endogenous promoter, in live cells
stoichiometry N: 6
